Source: patent US9266930
Read-outs that look alike come from different tables or passages of the source.

Assays:
[1] = molecular target: T1, HLA-DR5w12 (DRB1*1201) (human)
T1 chain 1: not shown
T1 chain 2: not shown

[2] = molecular target: T2, HLA-DR9 (DRB1*0901) (human)
T2 chain 1: not shown
T2 chain 2: not shown

[3] = molecular target: T3, HLA-DR6w19 (DRB1*1302) (human)
T3 chain 1: not shown
T3 chain 2: not shown

[4] = molecular target: T4, HLA-DR8w2 (DRB1*0802) (human)
T4 chain 1: not shown
T4 chain 2: not shown

[5] = molecular target: T5, HLA-DR7 (DRB1*0701) (human)
T5 chain 1: not shown
T5 chain 2: not shown

HLA-A*0201 (human) [6] = assay: competition with 125I probe peptide for purified HLA, gel filtration
[7] = molecular target: HLA-DR5w11 (DRB1*1101) (human)
[8] = molecular target: HLA-DR4w15 (DRB1*0405) (human)
[9] = molecular target: HLA-DR3 (DRB1*0301) (human)
[10] = molecular target: HLA-DR1 (DRB1*0101) (human)
[11] = molecular target: HLA-DR2w2β1 (DRB1*1501) (human)
[12] = molecular target: HLA-DR4w4 (DRB1*0401) (human)
HLA-A*1101 (human) [13] = molecular target: HLA-A*1101 (human)
[14] = molecular target: HLA-DR3 (DRB1*0301) (human); assay: competition with 125I-labeled probe peptide on purified HLA-DR, gel filtration
[15] = molecular target: T6, HLA-DR2w2β2 (DRB5*0101) (human); assay: inhibition of 125I-probe peptide binding to purified HLA-DR, gel filtration
T6 chain 1: not shown
T6 chain 2: not shown

[16] = molecular target: T7, HLA-DR1 (DRB1*0101) (human); assay: as above
T7 chain 1: not shown
T7 chain 2: not shown

[17] = molecular target: T8, HLA-DR4w4 (DRB1*0401) (human); assay: as above
T8 chain 1: not shown
T8 chain 2: not shown

[18] = molecular target: T9, HLA-DR5w11 (DRB1*1101) (human); assay: as above
T9 chain 1: not shown
T9 chain 2: not shown

[19] = molecular target: T10, HLA-DR4w15 (DRB1*0405) (human); assay: as above
T10 chain 1: not shown
T10 chain 2: not shown

HLA-A*1101 (human) [20] = assay: competition with 125I-labelled standard peptide for purified HLA, gel filtration
HLA-A*6801 (human) = assay: as above
HLA-A*0301 (human) [21] = assay: as above
HLA-A*0203 (human) = assay: competition with 125I probe peptide for purified HLA, gel filtration
HLA-A*0206 (human) = assay: as above
[22] = molecular target: HLA-DR2w2β2 (DRB5*0101) (human)
HLA-A*3301 (human) = assay: competition with 125I-labelled standard peptide for purified HLA, gel filtration
HLA-A*0201 (human) [23] = molecular target: HLA-A*0201 (human)
[24] = molecular target: T1, HLA-DR5w12 (DRB1*1201) (human)
HLA-A*0201 (Human) [25] = molecular target: HLA-A*0201 (Human)
HLA-A*1101 (human) [26] = assay: competition with 125I-labeled probe peptide for purified HLA, gel filtration; conditions: scale: ratio
HLA-A*0301 (human) [27] = assay: as above; conditions: scale: ratio
[28] = molecular target: HLA-A*1101 (purified HLA class I molecule) (human)
HLA-A*1101 (human) [29] = molecular target: HLA-A*1101 (human); remark: listed apart in the source
[30] = molecular target: T6, HLA-DR2w2β2 (DRB5*0101) (human)
[31] = molecular target: T7, HLA-DR1 (DRB1*0101) (human)
[32] = molecular target: T9, HLA-DR5w11 (DRB1*1101) (human)
[33] = molecular target: T11, HLA-DR2w2β1 (DRB1*1501) (human)
T11 chain 1: not shown
T11 chain 2: not shown

[34] = molecular target: T10, HLA-DR4w15 (DRB1*0405) (human)

## VSTVLLGGVGLVLYN (modifications not checked) [… (Pf EXP 88)]
[1]
  binding affinity ratio (IC50 of standard peptide / IC50 of test peptide): 0.0011
[2]
  binding affinity ratio (IC50 of standard peptide / IC50 of test peptide): 0.012
[3]
  binding affinity ratio (IC50 of standard peptide / IC50 of test peptide): 0.0002
[4]
  binding affinity ratio (IC50 of standard peptide / IC50 of test peptide): -0.0002
[5]
  binding affinity ratio (IC50 of standard peptide / IC50 of test peptide): 0.002

## GLIMVLSFL (modifications not checked) [1167.08]
HLA-A*0201 (human) [6]
  IC50: 0.022 µM

## IGPFMKAVCVEVEKT (modifications not checked)
[7]
  binding affinity ratio (IC50 of standard peptide / IC50 of test peptide): -0.0004
[8]
  binding affinity ratio (IC50 of standard peptide / IC50 of test peptide): 0.0086
[9]
  binding affinity ratio (IC50 of standard peptide / IC50 of test peptide): -0.0008
[10]
  binding affinity ratio (IC50 of standard peptide / IC50 of test peptide): 0.0072
[11]
  binding affinity ratio (IC50 of standard peptide / IC50 of test peptide): 0.0003
[12]
  binding affinity ratio (IC50 of standard peptide / IC50 of test peptide): -0.0006

## NLPNDKSDR (modifications not checked) [… (Pf SSP2 406)]
HLA-A*1101 (human) [13]
  binding affinity ratio (IC50 of standard peptide / IC50 of test peptide): 0.0002

## VEALFQEYQCYGSSS (modifications not checked)
[14]
  binding affinity ratio (IC50 standard peptide / IC50 test peptide): 0.0082

## EALFQEYQCYGSSSN (modifications not checked)
[15]
  binding affinity ratio (relative binding) (ratio to standard peptide): -0.0005
[16]
  binding affinity ratio (relative binding) (ratio to standard peptide): 0.0001
[17]
  binding affinity ratio (relative binding) (ratio to standard peptide): 0.0053
[18]
  binding affinity ratio (relative binding) (ratio to standard peptide): -0.0002
[19]
  binding affinity ratio (relative binding) (ratio to standard peptide): -0.0009

## QVRKHLNDR (modifications not checked)
HLA-A*1101 (human) [20]
  binding affinity ratio (IC50 of standard peptide / IC50 of test peptide): 0.0002
HLA-A*6801 (human)
  binding affinity ratio (IC50 of standard peptide / IC50 of test peptide): 0.0002
HLA-A*0301 (human) [21]
  binding affinity ratio (IC50 of standard peptide / IC50 of test peptide): 0.0005

## FMKAVCVEV (modifications not checked) [1167.16]
HLA-A*0201 (human) [6]
  IC50: 0.063 µM
HLA-A*0203 (human)
  IC50: 0.0029 µM
HLA-A*0206 (human)
  IC50: 0.389 µM

## LALFFIIFNK (modifications not checked) [Pf EXP peptide … (position 9)]
HLA-A*1101 (human) [13]
  binding affinity ratio (relative to standard peptide): 0.053

## ANQLVVILTDGIPDS (modifications not checked)
[7]
  binding affinity ratio (IC50 of standard peptide / IC50 of test peptide): -0.0002
[22]
  binding affinity ratio (IC50 of standard peptide / IC50 of test peptide): -0.0005
[11]
  binding affinity ratio (IC50 of standard peptide / IC50 of test peptide): 0.0008

## PSPNPEEGK (modifications not checked)
HLA-A*1101 (human) [20]
  binding affinity ratio (IC50 of standard peptide / IC50 of test peptide): 0.0002
HLA-A*6801 (human)
  binding affinity ratio (IC50 of standard peptide / IC50 of test peptide): 0.0002
HLA-A*0301 (human) [21]
  binding affinity ratio (IC50 of standard peptide / IC50 of test peptide): 0.0005
HLA-A*3301 (human)
  binding affinity ratio (IC50 of standard peptide / IC50 of test peptide): 0.001

## KILSVFFLA (modifications not checked) [1167.13]
HLA-A*0206 (human)
  IC50: 0.008 µM

## SVFNVVNSSI (modifications not checked) [… (P. falciparum CSP, position 415, 10 amino acids)]
HLA-A*0201 (human) [23]
  binding affinity ratio (IC50 of standard peptide / IC50 of test peptide): 0.0005

## EALFQEYQCYGSSSN (modifications not checked) [… (Pf CSP DR-supermotif 15-mer, core …)]
[24]
  binding affinity ratio (relative to standard peptide): 0.0001

## ILSVFFLAL (modifications not checked) [… (EXP position 3, 9 amino acids)]
HLA-A*0201 (Human) [25]
  binding affinity ratio (IC50 of standard peptide / IC50 of test peptide): 0.0058

## TVLLGGVGLVLYNTE (modifications not checked) [… (Pf EXP 90)]
[1]
  binding affinity ratio (IC50 of standard peptide / IC50 of test peptide): 0.0004
[4]
  binding affinity ratio (IC50 of standard peptide / IC50 of test peptide): -0.0002
[5]
  binding affinity ratio (IC50 of standard peptide / IC50 of test peptide): 0.0007

## GVSSKKKNKK (modifications not checked) [… (P. falciparum EXP, position 32, 10 amino acids)]
HLA-A*1101 (human) [26]
  binding affinity ratio (relative to standard peptide): 0.0002
HLA-A*0301 (human) [27]
  binding affinity ratio (relative to standard peptide): 0.0011

## TCGKGTRSRK (modifications not checked) [… (Pf SSP2 256, 10-mer)]
[28]
  binding affinity ratio (IC50 of standard peptide / IC50 of test peptide): 0.0002

## VTCGNGIQV (modifications not checked) [… (P. falciparum CSP, position 375, 9 amino acids)]
HLA-A*0201 (human) [23]
  binding affinity ratio (IC50 of standard peptide / IC50 of test peptide): 0.0011

## KLATSVLAGL (modifications not checked) [… (EXP position 75, 10 amino acids)]
HLA-A*0201 (Human) [25]
  binding affinity ratio (IC50 of standard peptide / IC50 of test peptide): 0.0047

## SVTCGKGTR (modifications not checked) [… (Pf SSP2 254, 9-mer)]
[28]
  binding affinity ratio (IC50 of standard peptide / IC50 of test peptide): 0.0009

## GVSSKKKNK (modifications not checked) [… (P. falciparum EXP, position 32, 9 amino acids)]
HLA-A*1101 (human) [26]
  binding affinity ratio (relative to standard peptide): 0.0002
HLA-A*0301 (human) [27]
  binding affinity ratio (relative to standard peptide): 0.0001

## GTGSGVSSKK (modifications not checked) [… (P. falciparum EXP-1, position 28)]
HLA-A*1101 (human) [29]
  binding affinity ratio (IC50 of standard peptide / IC50 of test peptide): 0.034

## NSSIGLIMVLSFLFL (modifications not checked)
[30]
  binding affinity ratio (relative binding) (ratio to standard peptide): 0.0024
[31]
  binding affinity ratio (relative binding) (ratio to standard peptide): 0.004
[32]
  binding affinity ratio (relative binding) (ratio to standard peptide): -0.0005
[33]
  binding affinity ratio (relative binding) (ratio to standard peptide): 0.025
[34]
  binding affinity ratio (relative binding) (ratio to standard peptide): 0.0035

## SDASKNKEK (modifications not checked) [… (Pf SSP2 105, 9-mer)]
[28]
  binding affinity ratio (IC50 of standard peptide / IC50 of test peptide): 0.0002

## ILSVFFLALFFIIFN (modifications not checked) [… (Pf EXP 3)]
[1]
  binding affinity ratio (IC50 of standard peptide / IC50 of test peptide): 0.0008
[2]
  binding affinity ratio (IC50 of standard peptide / IC50 of test peptide): -0.0003
[3]
  binding affinity ratio (IC50 of standard peptide / IC50 of test peptide): 0.0005
[4]
  binding affinity ratio (IC50 of standard peptide / IC50 of test peptide): 0.0031
[5]
  binding affinity ratio (IC50 of standard peptide / IC50 of test peptide): 0.011

## VSTVLLGGVGLVLYN (modifications not checked)
[7]
  binding affinity ratio (IC50 of standard peptide / IC50 of test peptide): 0.0003
[8]
  binding affinity ratio (IC50 of standard peptide / IC50 of test peptide): -0.0009
[9]
  binding affinity ratio (IC50 of standard peptide / IC50 of test peptide): -0.0008
[22]
  binding affinity ratio (IC50 of standard peptide / IC50 of test peptide): 0.0005
[11]
  binding affinity ratio (IC50 of standard peptide / IC50 of test peptide): 0.008

## NMPNDPNRNV (modifications not checked) [… (P. falciparum CSP, position 323, 10 amino acids)]
HLA-A*0201 (human) [23]
  binding affinity ratio (IC50 of standard peptide / IC50 of test peptide): 0.0007

## VFFLALFFIIFNKES (modifications not checked) [… (Pf EXP 6)]
[1]
  binding affinity ratio (IC50 of standard peptide / IC50 of test peptide): 0.0002
[2]
  binding affinity ratio (IC50 of standard peptide / IC50 of test peptide): -0.0018
[3]
  binding affinity ratio (IC50 of standard peptide / IC50 of test peptide): -0.0002
[4]
  binding affinity ratio (IC50 of standard peptide / IC50 of test peptide): -0.0007
[5]
  binding affinity ratio (IC50 of standard peptide / IC50 of test peptide): 0.0056

## ADSAWENVK (modifications not checked) [… (Pf SSP2 position 216)]
HLA-A*1101 (human) [13]
  binding affinity ratio (IC50 of standard peptide / IC50 of test peptide): 0.0009

## FIIFNKESLAEKTNK (modifications not checked)
[14]
  binding affinity ratio (IC50 standard peptide / IC50 test peptide): 0.004
